The values below come from patent publication US20140302524A1.

Where only a bound is given, the exact number is not on record here.

Test [1] addresses full-length human LOXL2 protein (human) (UniProt Q9Y4K0). The test is described as follows: ELISA, LOXL2 coated.
Test [2] shares this target. The test is described as follows: cell-based or functional assay.

Chain of UniProt Q9Y4K0 (Q9Y4K0 other isoform, or with tags, fused parts or gaps): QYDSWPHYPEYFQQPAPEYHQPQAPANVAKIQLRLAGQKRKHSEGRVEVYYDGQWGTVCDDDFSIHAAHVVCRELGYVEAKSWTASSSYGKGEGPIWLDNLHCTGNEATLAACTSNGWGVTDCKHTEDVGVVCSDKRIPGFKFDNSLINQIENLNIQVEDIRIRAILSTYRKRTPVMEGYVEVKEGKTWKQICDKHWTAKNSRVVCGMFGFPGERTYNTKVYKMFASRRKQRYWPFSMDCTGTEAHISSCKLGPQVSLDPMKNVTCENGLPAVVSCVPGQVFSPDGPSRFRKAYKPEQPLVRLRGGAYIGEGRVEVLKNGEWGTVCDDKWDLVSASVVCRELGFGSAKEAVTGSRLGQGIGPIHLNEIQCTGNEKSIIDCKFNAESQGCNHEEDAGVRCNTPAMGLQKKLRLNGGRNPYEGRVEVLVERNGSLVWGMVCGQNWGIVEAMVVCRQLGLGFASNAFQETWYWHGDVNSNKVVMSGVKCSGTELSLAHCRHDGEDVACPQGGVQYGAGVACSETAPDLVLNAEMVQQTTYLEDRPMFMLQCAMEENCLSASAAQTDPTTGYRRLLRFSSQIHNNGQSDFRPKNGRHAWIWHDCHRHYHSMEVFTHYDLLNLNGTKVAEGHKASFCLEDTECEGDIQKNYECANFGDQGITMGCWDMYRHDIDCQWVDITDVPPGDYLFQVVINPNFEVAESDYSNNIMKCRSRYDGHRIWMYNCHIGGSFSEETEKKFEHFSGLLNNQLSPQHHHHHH

B1: AB0023 (antibody, from another filing, V domains shown)
VH: QVQLQQSGAELVRPGTSVKVSCKASGYAFTYYLIEWVKQRPGQGLEWIGVINPGSGGTNYNEKFKGKATLTADKSSSTAYMQLSSLTSDDSAVYFCARNWMNFDYWGQGTTLTVSS
VL: DIVMTQAAPSVSVTPGESVSISCRSSKSLLHSNGNTYLYWFLQRPGQSPQFLIYRMSNLASGVPDRFSGSGSGTAFTLRISRVEAEDVGVYYCMQHLEYPYTFGGGTKLEIK
For orientation: Kd means the concentration at which binding is half-saturated. A high value points to weaker binding. In test [1], B1 displayed a Kd of less than 1 nM. In test [2], this molecule registered an IC50′ (nM), inhibition of LOXL2 enzymatic activity (Amplex Red assay); substrate DAP, collagen of 62 nM.
